According to patent US20240410826A1:
pKd: −log10 of the molar value.

Legend:
[1] = molecular target: Human colostrum IgA (Catalog No. 16-13-090701, Athens Research and Technology) (human); assay: single-objective ESM digital counting; 5 nM IgA flowed over anti-IgA fixed on ITO; KD=koff/kon
[2] = molecular target: Human colostrum IgA (Catalog No. 16-13-090701, Athens Research and Technology) (human); assay: single-objective ESM digital counting; 5 nM IgA flowed over anti-IgA fixed on ITO; first-order fit
[3] = molecular target: Human colostrum IgA (Catalog No. 16-13-090701, Athens Research and Technology) (human); assay: ESM digital single-molecule counting; 20 nM IgA flowed over anti-IgA fixed on cover glass; KD=koff/kon
[4] = molecular target: Human colostrum IgA (Catalog No. 16-13-090701, Athens Research and Technology) (human); assay: ESM digital single-molecule counting; 20 nM IgA flowed over anti-IgA fixed on cover glass; first-order fit
[5] = molecular target: Human colostrum IgA (Catalog No. 16-13-090701, Athens Research and Technology) (human); assay: ESM real-time size (DH) of PEG-tethered single IgA on ITO after adding anti-IgA; mean of ~60 binding events
[6] = molecular target: Human colostrum IgA (Catalog No. 16-13-090701, Athens Research and Technology) (human); assay: ESM real-time charge (q) of PEG-tethered single IgA on ITO after adding anti-IgA; mean of ~60 binding events
[7] = molecular target: Human colostrum IgA (Catalog No. 16-13-090701, Athens Research and Technology) (human); assay: ESM counting of landing events of IgA monomer and complex on BSA-coated ITO; binding in free solution; fit of monomer ratio decay
[8] = molecular target: Human colostrum IgA (Catalog No. 16-13-090701, Athens Research and Technology) (human); assay: ESM parallel kinetics; binding in free solution in a mixture of anti-IgA, IgA and IgM, 2.5 nM each; fit of IgA monomer ratio decay
[9] = molecular target: Human colostrum IgA (Catalog No. 16-13-090701, Athens Research and Technology) (human); assay: ESM end-point size histogram of IgA/BSA mixture tethered on ITO, before (12.1±1.2 nm) and after (13.6±2.1 nm) adding anti-IgA; ~420 molecules
[10] = molecular target: Human colostrum IgA (Catalog No. 16-13-090701, Athens Research and Technology) (human); assay: ESM counting of landing events on BSA-coated ITO; 5 nM anti-IgA mixed with 5 nM IgA in free solution; fraction of IgA still free in the first minute
[11] = molecular target: Human colostrum IgA (Catalog No. 16-13-090701, Athens Research and Technology) (human); assay: ESM counting of landing events on BSA-coated ITO; 5 nM anti-IgA mixed with 5 nM IgA in free solution; fraction of IgA still free in the third minute

“Goat anti-human IgA (IgG, Catalog No. STAR141, BIO-RAD) (antibody)” was tested, and the pKd [1] was 9.06, the koff [2] was 0.0002 s⁻¹ and the kon [2] was 230000 M⁻¹ s⁻¹. For the same substance, the pKd [3] was 9.06, the koff [4] was 9.6e-05 s⁻¹ and the kon [4] was 110000 M⁻¹ s⁻¹. It also gave an average size change on antibody binding [5] of 1.7 nm, an average charge change on antibody binding [6] of 1.8 e and a pKd [7] of 9.08. It also gave a koff [7] of 0.00173 s⁻¹, a kon [7] of 2.18e+06 M⁻¹ s⁻¹ and a pKd [8] of 8.74. For the same substance, the koff [8] was 0.00148 s⁻¹, the kon [8] was 881000 M⁻¹ s⁻¹ and the shift of the IgA size peak after antibody binding [9] was 1.5 nm. The IgA monomer ratio (first minute) [10] was 1 and the IgA monomer ratio (third minute) [11] was 0.5.
